# Source: patent US20240368282A1 (BIOSCEPTRE AUST, published 2024)
# T1: CD79B (UniProt P40259 29-229, limits assumed)
# T1 construct: whole, on cells
# T1 sequence (looked up): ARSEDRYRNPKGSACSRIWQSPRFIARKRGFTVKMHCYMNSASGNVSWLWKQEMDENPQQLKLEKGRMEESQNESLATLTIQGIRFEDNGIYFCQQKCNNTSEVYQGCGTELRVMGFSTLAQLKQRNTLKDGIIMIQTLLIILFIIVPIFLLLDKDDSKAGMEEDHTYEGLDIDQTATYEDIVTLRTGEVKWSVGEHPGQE
# T2: BCMA (UniProt Q02223 1-184, limits assumed)
# T2 construct: whole, on cells
# T2 sequence (looked up): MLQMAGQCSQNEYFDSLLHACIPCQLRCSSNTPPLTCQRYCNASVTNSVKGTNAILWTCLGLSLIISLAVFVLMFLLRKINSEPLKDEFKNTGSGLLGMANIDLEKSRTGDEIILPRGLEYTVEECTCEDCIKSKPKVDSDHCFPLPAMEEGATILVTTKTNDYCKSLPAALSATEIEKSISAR
# T3: CD37 (UniProt P11049 1-281, limits assumed)
# T3 construct: whole, on cells
# T3 sequence (looked up): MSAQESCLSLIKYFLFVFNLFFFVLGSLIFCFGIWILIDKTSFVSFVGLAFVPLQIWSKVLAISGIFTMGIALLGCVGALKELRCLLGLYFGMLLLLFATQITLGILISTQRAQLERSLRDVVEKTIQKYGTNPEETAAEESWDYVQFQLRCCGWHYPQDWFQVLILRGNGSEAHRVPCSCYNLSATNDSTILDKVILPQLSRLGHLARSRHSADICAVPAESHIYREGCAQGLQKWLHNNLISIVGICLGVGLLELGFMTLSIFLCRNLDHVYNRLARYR
# T4: CD70 (UniProt P32970 1-193, limits assumed)
# T4 construct: whole, on cells
# T4 sequence (looked up): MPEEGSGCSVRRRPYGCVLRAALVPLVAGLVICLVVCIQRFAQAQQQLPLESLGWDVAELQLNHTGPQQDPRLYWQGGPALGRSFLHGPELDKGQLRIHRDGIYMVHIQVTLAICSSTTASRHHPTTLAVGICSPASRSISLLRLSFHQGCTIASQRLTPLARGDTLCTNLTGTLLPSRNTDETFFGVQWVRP
# B1: CD79B bridging molecule derived from polatuzumab (Fab, V domains shown)
# VH: EVQLVESGGGLVQPGGSLRLSCAASGYTFSSYWIEWVRQAPGKGLEWIGEILPGGGDTNYNEIFKGRATFSADTSKNTAYLQMNSLRAEDTAVYYCTRRVPIRLDYWGQGTLVTVSS
# VL: DIQLTQSPSSLSASVGDRVTITCKASQSVDYEGDSFLNWYQQKPGKAPKLLIYAASNLESGVPSRFSGSGSGTDFTLTISSLQPEDFATYYCQQSNEDPLTFGQGTKVEIKR
# notes: Fab with E200 at the N-terminus of the light chain, 6xHis on both chains; also called B025; CD79B, Polatuzumab, B025-1 LC / B025-2_HC
# B2: OR_BiKE2 OR106 (CD16 x nfP2X7) (bispecific antibody)
# chain: DIVLTQSPASLAVSLGQRATISCKASQSVDFDGDSFMNWYQQKPGQPPKLLIYTTSNLESGIPARFSASGSGTDFTLNIHPVEEEDTATYYCQQSNEDPYTFGGGTKLEIKGGGGSGGGGSGGGGSQVTLKESGPGILQPSQTLSLTCSFSGFSLRTSGMGVGWIRQPSGKGLEWLAHIWWDDDKRYNPALKSRLTISKDTSSNQVFLKIASVDTADTATYYCAQINPAWFAYWGQGTLVTVSSVEGGSGGSGGSGGSGGVDEVQLLESGGGLVQPGGSLRLSCAASGFTFRNHDMGWVRQAPGKGLEWVSAISGSGGSTYYANSVKGRFTISRDNSKNTLYLQMNSLRAEDTAVYYCAEPKPMDTEFDYRSPGTLVTVSSGGGGSGGGGSGGGGSDIQMTQSPSSLSASVGDRVTITCRASQYIYDYLNWYQQKPGKAPKLLIYAASYLQSGVPSRFSGSGSGTDFTLTISSLQPEDFATYYCQQYHHPSTFGQGTKVEIKRHHHHHH
# notes: 3G8 scFv-linker-BIL03/WTB1 scFv-6xHis
# B3: OR_BiKE1 OR105 (nfP2X7 x CD16) (bispecific antibody)
# chain: DIQMTQSPSSLSASVGDRVTITCRASQYIYDYLNWYQQKPGKAPKLLIYAASYLQSGVPSRFSGSGSGTDFTLTISSLQPEDFATYYCQQYHHPSTFGQGTKVEIKRGGGGSGGGGSGGGGSEVQLLESGGGLVQPGGSLRLSCAASGFTFRNHDMGWVRQAPGKGLEWVSAISGSGGSTYYANSVKGRFTISRDNSKNTLYLQMNSLRAEDTAVYYCAEPKPMDTEFDYRSPGTLVTVSSVEGGSGGSGGSGGSGGVDQVTLKESGPGILQPSQTLSLTCSFSGFSLRTSGMGVGWIRQPSGKGLEWLAHIWWDDDKRYNPALKSRLTISKDTSSNQVFLKIASVDTADTATYYCAQINPAWFAYWGQGTLVTVSSGGGGSGGGGSGGGGSDIVLTQSPASLAVSLGQRATISCKASQSVDFDGDSFMNWYQQKPGQPPKLLIYTTSNLESGIPARFSASGSGTDFTLNIHPVEEEDTATYYCQQSNEDPYTFGGGTKLEIKHHHHHH
# B4: EGFR bridging molecule derived from matuzumab (Fab, V domains shown)
# VH: QVQLVQSGAEVKKPGASVKVSCKASGYTFTSHWMHWVRQAPGQGLEWIGEFNPSNGRTNYNEKFKSKATMTVDTSTNTAYMELSSLRSEDTAVYYCASRDYDYDGRYFDYWGQGTLVTVSS
# VL: DIQMTQSPSSLSASVGDRVTITCSASSSVTYMYWYQQKPGKAPKLLIYDTSNLASGVPSRFSGSGSGTDYTFTISSLQPEDIATYYCQQWSSHIFTFGQGTKVEIKR
# notes: also called B035; EGFR, Matuzumab, B035-1_LC / B035-2_HC
# B5: BCMA bridging molecule derived from clone CA8 J9M0 (Fab, V domains shown)
# VH: QVQLVQSGAEVKKPGSSVKVSCKGSGYTFTNYWMHWVRQAPGQGLEWIGATYRGHSDTYYNQKFKGRATLTADTSTSTAYMELSSLRSEDTAVYYCTRGAIYDGYDVLDNWGQGTLVTVSS
# VL: DIQMTQSPSSLSASVGDRVTITCSASQDISNYLNWYQQKPGKAPKLLIYYTSNLHSGVPSRFSGSGSGTDFTLTISSLQPEDFATYYCQQYRKLPWTFGQGTKLEIKR
# notes: Fab with E200 at the N-terminus of the light chain, 6xHis on both chains; also called B039; BCMA, clone CA8 J9M0, B039-1_LC / B039-2_HC
# B6: CD22 bridging molecule derived from inotuzumab (Fab, V domains shown)
# VH: EVQLVQSGAEVKKPGASVKVSCKASGYRFTNYWIHWVRQAPGQGLEWIGGINPGNNYATYRRKFQGRVTMTADTSTSTVYMELSSLRSEDTAVYYCTREGYGNYGAWFAYWGQGTLVTVSS
# VL: DVQVTQSPSSLSASVGDRVTITCRSSQSLANSYGNTFLSWYLHKPGKAPQLLIYGISNRFSGVPDRFSGSGSGTDFTLTISSLQPEDFATYYCLQGTHQPYTFGQGTKVEIKR
# notes: also called B024; CD22, Inotuzumab, B024-1_LC / B024-2_HC
# B7: CD135 bridging molecule derived from 4G8 (Fab, V domains shown)
# VH: QVQLQQPGAELVKPGASLKLSCKSSGYTFTSYWMHWVRQRPGHGLEWIGEIDPSDSYKDYNQKFKDKATLTVDRSSNTAYMHLSSLTSDDSAVYYCARAITTTPFDFWGQGTTLTVSS
# VL: DIVLTQSPATLSVTPGDSVSLSCRASQSISNNLHWYQQKSHESPRLLIKYASQSISGIPSRFSGSGSGTDFTLSINSVETEDFGVYFCQQSNTWPYTFGGGTKLEIKR
# notes: Fab with E200 at the N-terminus of the light chain, 6xHis on both chains; also called B041; CD135, clone 4G8, B041-1_LC / B041-2_HC
# B8: CD22 bridging molecule derived from m971-L7 (Fab, V domains shown)
# VH: QVQLQQSGPGMVKPSQTLSLTCAISGDSVSSNSVAWNWIRQSPSRGLEWLGRTYYRSTWYNDYAVSMKSRITINPDTNKNQFSLQLNSVTPEDTAVYYCAREVTGDLEDAFDIWGQGTMVTVSS
# VL: DIQMIQSPSSLSASVGDRVTITCRASQTIWSYLNWYRQRPGEAPNLLIYAASSLQSGVPSRFSGRGSGTDFTLTISSLQAEDFATYYCQQSYSIPQTFGQGTKLEIKR
# notes: Fab with E200 at the N-terminus of the light chain, 6xHis on both chains; also called B023; CD22, m971-L7, B023-1 LC / B023-2_Heavy Chain
# B9: CD123 bridging molecule derived from clone 32716 (Fab, V domains shown)
# VH: QIQLVQSGPELKKPGETVKISCKASGYIFTNYGMNWVKQAPGKSFKWMGWINTYTGESTYSADFKGRFAFSLETSASTAYLHINDLKNEDTATYFCARSGGYDPMDYWGQGTSVTVSS
# VL: DIVLTQSPASLAVSLGQRATISCRASESVDNYGNTFMHWYQQKPGQPPKLLIYRASNLESGIPARFSGSGSRTDFTLTINPVEADDVATYYCQQSNEDPPTFGAGTKLELKR
# notes: Fab with E200 at the N-terminus of the light chain, 6xHis on both chains; also called B042; CD123, clone 32716, B042-1_LC / B042-2_HC
# B10: CD37 bridging molecule derived from otlertuzumab (Fab, V domains shown)
# VH: EVQLVQSGAEVKKPGESLKISCKGSGYSFTGYNMNWVRQMPGKGLEWMGNIDPYYGGTTYNRKFKGQVTISADKSISTAYLQWSSLKASDTAMYYCARSVGPFDSWGQGTLVTVSS
# VL: EIVLTQSPATLSLSPGERATLSCRASENVYSYLAWYQQKPGQAPRLLIYFAKTLAEGIPARFSGSGSGTDFTLTISSLEPEDFAVYYCQHHSDNPWTFGQGTKVEIKR
# notes: Fab with E200 at the N-terminus of the light chain, 6xHis on both chains; also called B026; CD37, Otlertuzumab, B026-1_LC / B026-2_HC
# B11: ROR1 bridging molecule derived from ROR1 APC (WO2016016344A1_D10v3) (Fab, V domains shown)
# VH: QVQLKESGPGLVAPSQTLSITCTVSGFSLTSYGVHWVRQPPGKGLEWLGVIWAGGFTNYNSALKSRLSISKDNSKSQVLLKMTSLQTDDTAMYYCARRGSSYSMDYWGQGTSVTVSS
# VL: EIVLSQSPAITAASLGQKVTITCSASSNVSYIHWYQQRSGTSPRPWIYEISKLASGVPVRFSGSGSGTSYSLTISSMEAEDAAIYYCQQWNYPLITFGSGTKLEIQR
# notes: Fab with E200 at the N-terminus of the light chain, 6xHis on both chains; also called B044; ROR-1, clone D10v3, B044-1 LC / B044-2_HC
# B12: CD33 BRiDGE (B031) (Fab, V domains shown)
# VH: QVQLVQSGAEVKKPGSSVKVSCKASGYTFTDYNMHWVRQAPGQGLEWIGYIYPYNGGTGYNQKFKSKATITADESTNTAYMELSSLRSEDTAVYYCARGRPAMDYWGQGTLVTVSS
# VL: DIQMTQSPSSLSASVGDRVTITCRASESVDNYGISFMNWFQQKPGKAPKLLIYAASNQGSGVPSRFSGSGSGTDFTLTISSLQPDDFATYYCQQSKEVPWTFGQGTKVEIKR
# notes: 6xHis on both chains; also called CD33 bridging molecule; CD33 Fab
# B13: CD70 bridging molecule derived from cusatuzumab (Fab, V domains shown)
# VH: EVQLVESGGGLVQPGGSLRLSCAASGFTFSVYYMNWVRQAPGKGLEWVSDINNEGGTTYYADSVKGRFTISRDNSKNSLYLQMNSLRAEDTAVYYCARDAGYSNHVPIFDSWGQGTLVTVSS
# VL: SQAVVTQEPSLTVSPGGTVTLTCGLKSGSVTSDNFPTWYQQTPGQAPRLLIYNTNTRHSGVPDRFSGSILGNKAALTITGAQADDEAEYFCALFISNPSVEFGGGTQLTVLK
# notes: Fab with E200 at the N-terminus of the light chain, 6xHis on both chains; also called B028; CD70, Cusatuzumab, B028-1_LC / B028-2_HC
# Assays:
# CD79B = target: T1, CD79B; assay: flow cytometry, anti-HIS antibody
# CD16 = target: T5, CD16 (human, UniProt P08637 17-254); assay: binding to NK cells (method not told)
# T5 construct: whole, on cells; CD16 is the antigen of the 3G8 arm of these molecules; also called FcγRIII
# T5 sequence (P08637 17-254): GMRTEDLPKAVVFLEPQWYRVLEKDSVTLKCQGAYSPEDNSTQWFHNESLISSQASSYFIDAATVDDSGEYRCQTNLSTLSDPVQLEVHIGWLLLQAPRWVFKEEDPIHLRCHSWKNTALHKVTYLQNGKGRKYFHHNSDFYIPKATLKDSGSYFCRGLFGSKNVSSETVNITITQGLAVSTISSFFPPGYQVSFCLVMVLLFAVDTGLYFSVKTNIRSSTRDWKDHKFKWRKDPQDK
# EGFR = target: T6, EGFR (UniProt P00533 25-1210); assay: flow cytometry, anti-HIS antibody
# T6 construct: whole, on cells
# BCMA = target: T2, BCMA; assay: flow cytometry, anti-HIS antibody
# CD22 [1] = target: T7, CD22 (UniProt P20273 20-847, limits assumed); assay: flow cytometry (data not shown)
# T7 construct: whole, on cells
# CD135 = target: T8, CD135 (UniProt P36888 27-993, limits assumed); assay: flow cytometry, anti-HIS antibody
# T8 construct: whole, on cells; also called FLT-3
# CD22 [2] = target: T7, CD22; assay: flow cytometry, anti-HIS antibody
# CD123 = target: T9, CD123 (UniProt P26951 19-378, limits assumed); assay: flow cytometry, anti-HIS antibody
# T9 construct: whole, on cells; also called IL3RA
# T9 sequence (P26951 19-378 limits assumed): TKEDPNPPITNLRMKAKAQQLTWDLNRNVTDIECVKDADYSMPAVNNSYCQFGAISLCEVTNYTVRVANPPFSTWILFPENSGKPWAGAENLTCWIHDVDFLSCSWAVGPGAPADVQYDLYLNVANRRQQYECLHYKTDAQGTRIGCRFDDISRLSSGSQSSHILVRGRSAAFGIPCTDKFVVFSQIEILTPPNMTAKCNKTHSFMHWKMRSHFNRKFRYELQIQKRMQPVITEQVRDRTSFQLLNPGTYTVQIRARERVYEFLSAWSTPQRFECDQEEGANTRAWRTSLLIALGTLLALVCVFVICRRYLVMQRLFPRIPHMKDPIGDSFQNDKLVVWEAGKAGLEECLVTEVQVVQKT
# CD37 = target: T3, CD37; assay: flow cytometry, anti-HIS antibody
# ROR1 = target: T10, ROR1 (UniProt Q01973 30-937, limits assumed); assay: flow cytometry, anti-HIS antibody
# T10 construct: whole, on cells
# CD33 = target: T11, CD33 (UniProt P20138 18-364, limits assumed); assay: flow cytometry, anti-HIS antibody
# T11 construct: whole, on cells; Endogenous on human cell lines; also called Siglec-3
# T11 sequence (P20138 18-364 limits assumed): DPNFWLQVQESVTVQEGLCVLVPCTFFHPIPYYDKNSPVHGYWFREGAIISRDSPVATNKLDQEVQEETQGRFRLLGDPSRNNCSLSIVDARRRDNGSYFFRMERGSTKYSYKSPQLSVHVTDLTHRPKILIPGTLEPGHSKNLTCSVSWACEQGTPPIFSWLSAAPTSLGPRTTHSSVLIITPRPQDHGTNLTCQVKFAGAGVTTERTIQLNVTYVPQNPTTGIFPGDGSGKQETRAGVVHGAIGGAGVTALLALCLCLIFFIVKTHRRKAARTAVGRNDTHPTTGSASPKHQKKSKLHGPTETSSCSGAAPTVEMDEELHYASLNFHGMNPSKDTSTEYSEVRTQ
# CD70 = target: T4, CD70; assay: flow cytometry, anti-HIS antibody
binder,measurement,setting,value
B1,binding result,CD79B,binds
B2,binding result,CD16,binds
B3,binding result,CD16,binds
B4,binding result,EGFR,binds
B5,binding result,BCMA,binds
B6,binding result,CD22 [1],binds
B7,binding result,CD135,binds
B8,binding result,CD22 [2],binds
B9,binding result,CD123,binds
B10,binding result,CD37,binds
B11,binding result,ROR1,binds
B12,binding result,CD33,binds
B13,binding result,CD70,binds
